Measured values published in publication PMC4229625.

Molecular target: GST-Ana2 phosphorylated by active Plk4 (MBP-Plk4) (Drosophila) (UniProt Q9XZ31)
Test: pull-down; recombinant GST-Ana2 (or its fragments or mutants) on beads, incubated with active MBP-Plk4 or inactive MBP-Plk4^KD, then with ^35S-Met-labeled proteins made by in vitro transcription and translation; SDS-PAGE and autoradiography

Chain of UniProt Q9XZ31 (Q9XZ31 entry or part of it): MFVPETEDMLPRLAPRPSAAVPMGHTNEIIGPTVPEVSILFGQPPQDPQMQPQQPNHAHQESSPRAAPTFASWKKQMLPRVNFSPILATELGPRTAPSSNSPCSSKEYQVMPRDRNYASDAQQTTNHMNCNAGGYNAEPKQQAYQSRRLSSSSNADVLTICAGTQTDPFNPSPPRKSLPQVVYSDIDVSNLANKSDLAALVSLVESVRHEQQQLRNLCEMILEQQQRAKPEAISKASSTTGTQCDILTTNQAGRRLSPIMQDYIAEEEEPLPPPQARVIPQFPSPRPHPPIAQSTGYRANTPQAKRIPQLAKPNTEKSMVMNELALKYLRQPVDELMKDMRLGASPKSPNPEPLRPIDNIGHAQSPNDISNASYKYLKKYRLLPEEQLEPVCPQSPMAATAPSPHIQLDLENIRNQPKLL

^35S-Met-labeled Bld10 (natural protein)
fold increase of binding against Ana2 treated with inactive Plk4: 3.5 fold
